Test results from PMC2141715.
Read-outs that look alike come from different tables or passages of the source.

Key:
Experiment in all cases: co-IP
[1] = molecular target: calnexin (canine pancreas microsomes) (dog (endogenous in canine pancreas microsomes)) (UniProt P24643)
[2] = molecular target: calreticulin (canine pancreas microsomes) (dog (endogenous in canine pancreas microsomes)) (UniProt P28490)
[3] = molecular target: calnexin (canine pancreas microsomes) (dog (endogenous in canine pancreas microsomes)) (UniProt P24643); remark: listed apart in the source
[4] = molecular target: calreticulin (canine pancreas microsomes) (dog (endogenous in canine pancreas microsomes)) (UniProt P28490); remark: listed apart in the source

UniProt P24643, sequence (P24643 21-593): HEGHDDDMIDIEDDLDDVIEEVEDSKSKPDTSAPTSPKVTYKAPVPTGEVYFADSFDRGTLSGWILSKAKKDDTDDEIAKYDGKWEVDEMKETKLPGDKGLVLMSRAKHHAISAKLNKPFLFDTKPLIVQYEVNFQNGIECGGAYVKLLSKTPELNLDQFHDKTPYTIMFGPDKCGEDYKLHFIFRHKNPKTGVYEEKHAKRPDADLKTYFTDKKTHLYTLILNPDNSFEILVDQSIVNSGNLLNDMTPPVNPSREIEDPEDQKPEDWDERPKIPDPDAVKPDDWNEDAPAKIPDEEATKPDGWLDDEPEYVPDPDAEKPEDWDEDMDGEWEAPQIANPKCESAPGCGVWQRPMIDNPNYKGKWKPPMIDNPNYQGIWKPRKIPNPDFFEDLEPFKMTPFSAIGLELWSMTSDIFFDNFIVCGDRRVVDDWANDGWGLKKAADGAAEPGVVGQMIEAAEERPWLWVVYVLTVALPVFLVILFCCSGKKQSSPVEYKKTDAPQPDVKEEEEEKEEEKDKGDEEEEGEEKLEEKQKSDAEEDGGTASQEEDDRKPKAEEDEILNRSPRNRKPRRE

Substance | percent of HA coprecipitated [1] [%] | percent of HA coprecipitated [2] [%] | binding ratio of the IT2 form (IT1 = 1.0, normalised to anti-HA precipitations) [3] | binding ratio of the NT form (IT1 = 1.0, normalised to anti-HA precipitations) [3] | percent of HA in calnexin–HA complexes without calreticulin [3] [%] | percent of HA in ternary complexes with m2 and m3 [3] [%] | binding ratio of the IT2 form (IT1 = 1.0, normalised to anti-HA precipitations) [4] | binding ratio of the NT form (IT1 = 1.0, normalised to anti-HA precipitations) [4] | percent of HA coprecipitated [4] [%] | percent of HA in calreticulin–HA complexes without calnexin [4] [%] | percent of HA in ternary complexes with m2 and m3 [4] [%]
anchor-free, truncated, soluble form of HA (domain or fragment) | 54 | 50 | – | – | – | – | – | – | – | – | –
influenza virus hemagglutinin (HA), wild type, X31 (natural protein) | 82 | 50 | 0.65 | 0.63 | 8 | 40 | 0.57 | 0.16 | 45 | 10 | 40
